In patent US20260207767A1 (ANAVEON, published 2026):
Like-named read-outs stand apart in the source and are kept apart here.

How the values were obtained:
[1] = target: T1, recombinant hPD-1 (construct not stated) (human, UniProt Q15116 25-167, limits assumed); assay: BLI, supernatants
T1 construct: also called huPD-1; Human PD1
Source text: In order to remove an N-glycosylation site present in the CDR-L1, mutations were inserted in the CDR-L1 of 21A08. The first asparagine ([…], N) in CDR-L1, was replaced by a serine (Ser, S), Glutamine (Gln, Q), or Alanine (Ala, A).

[2] = target: T2, cynomolgus PD-1 expressed on cells (cynomolgus monkey, UniProt B0LAJ3 25-288); assay: flow cytometry, HEK293 cyPD1
T2 construct: also called CHO-S Cyno-PD-1; 293:cyPD1

[3] = target: T3, human PD-1 expressed on cells (human, UniProt Q15116 25-288); assay: flow cytometry, HEK293 huPD1
T3 construct: whole, on cells; cell line named under assay; also called CHO-S hPD-1; Raji PD-1

[4] = target: T4, cynoPD-1 His (AcroBiosystems PD1-C5223) (cynomolgus monkey, UniProt B0LAJ3 25-170); assay: BLI (legend: SPR), Ab on sensor
T4 construct: also called cPD-1; cynomolgus PD-1 His-tagged

[5] = target: T5, hPD-1 His-tagged (human, UniProt Q15116 25-167); assay: BLI (legend: SPR), Ab on sensor
T5 construct: also called recombinant hPD-1 (AcroBio)

[6] = target: T1, recombinant hPD-1 (construct not stated); assay: ELISA
[7] = target: T6, recombinant cynoPD-1 (construct not stated) (cynomolgus monkey, UniProt B0LAJ3 25-170); assay: ELISA
T6 construct: not shown: probably His as elsewhere

[8] = target: T3, human PD-1 expressed on cells; assay: flow cytometry, CHO-S hPD-1
Experimental: CHO-S hPD-1 cells were incubated with a 5-fold serial dilution of the indicated humanized antibodies. Antibody binding was detected with goat anti-human IgG-PE. MFI were plotted over the antibody concentration to obtain EC50 values.

[9] = target: T3, human PD-1 expressed on cells; assay: flow cytometry, CHO-S hPD-1; remark: listed apart in the source
[10] = target: T7, hPD-1 Avi-Tag Biotin (AcroBiosystems PD1-H82E4) (human, UniProt Q15116 25-167, biotin on Avi-Tag); assay: SPR, Ab captured, PD-1 analyte
T7 construct: bought; also called human PD-1
Experimental: (§1) Anti-human Fc IgG (Jackson) was immobilized on amine reactive CM5 chips (GE Healthcare) using 1×HBS-EP+ running buffer (GE Healthcare). The test antibodies were captured at flow rate 10 μl/min with 30 s contact time. […] Regeneration was carried out with 10 mM Glycine-HCl, pH 1.5 at flow rate 10 μL/min. This protocol is to be used, unless stated otherwise, in determination of Kd wherever used to define the KD of antibodies specified herein, with adaptions where necessary with regard to the nature of the interaction partners.

[11] = target: T4, cynoPD-1 His (AcroBiosystems PD1-C5223); assay: SPR, Ab captured, PD-1 analyte
Experimental: as §1

[12] = target: T7, hPD-1 Avi-Tag Biotin (AcroBiosystems …); assay: SPR, Ab captured, PD-1 analyte; remark: listed apart in the source
Experimental: as §1, with “partners. […]” for “partners.”

[13] = target: T2, cynomolgus PD-1 expressed on cells; assay: flow cytometry, CHO-S Cyno-PD-1
[14] = target: T4, cynoPD-1 His (AcroBiosystems PD1-C5223); assay: SPR; second ka column, taken as cynoPD-1
Experimental: as §1
Every position in the antibody VH and VL-CDRs was mutated by PCR using a mutagenic primer containing a degenerate codon NNS at a specific CDR position, introducing a combination of all 20 amino acids. The library of single mutants was screened by scFv capture ELISA using a redundancy factor of 4 (on 96-well plate er position). Clones displaying ≥2× ELISA signal compared to the wild-type scFv were sequenced, and clones with unique sequences were re-grown, re-screened by capture ELISA and ranked by dose-dependent ELISA on human and cyno antigens, and by FACS using human antigen expressing cells. Affinity improving mutations were used to design a combinatorial library using the Kunkel method. The library was screened by scFv capture ELISA using the redundancy factor of 4 (4× number of combinations). Clones displaying ≥2× ELISA signal compared to the wild-type scFv were sequenced, and clones with unique sequences were re-grown, re-screened by capture ELISA and ranked by dose-dependent ELISA on human and cyno antigens, and by FACS using human antigen expressing cells.

T4 sequence (B0LAJ3 entry or part of it limits assumed): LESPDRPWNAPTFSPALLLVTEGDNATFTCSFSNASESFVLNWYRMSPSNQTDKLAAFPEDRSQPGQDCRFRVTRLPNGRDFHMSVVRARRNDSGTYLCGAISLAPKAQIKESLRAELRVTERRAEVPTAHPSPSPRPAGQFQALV
T3 sequence (Q15116 25-288): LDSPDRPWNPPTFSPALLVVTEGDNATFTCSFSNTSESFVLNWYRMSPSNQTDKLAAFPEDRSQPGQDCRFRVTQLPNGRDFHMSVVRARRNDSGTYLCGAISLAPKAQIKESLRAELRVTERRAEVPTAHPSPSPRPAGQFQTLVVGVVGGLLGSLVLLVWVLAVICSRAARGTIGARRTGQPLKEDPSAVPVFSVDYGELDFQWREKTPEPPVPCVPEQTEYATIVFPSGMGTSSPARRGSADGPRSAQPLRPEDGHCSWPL
T5 sequence (Q15116 25-167 limits assumed): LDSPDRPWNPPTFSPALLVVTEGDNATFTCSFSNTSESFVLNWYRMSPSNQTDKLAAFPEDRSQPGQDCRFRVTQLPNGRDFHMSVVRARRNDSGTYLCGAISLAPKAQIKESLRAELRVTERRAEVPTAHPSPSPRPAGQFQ
T7 sequence (Q15116 25-167 limits assumed): as above
T1 sequence (Q15116 25-167 limits assumed): as above
T2 sequence (B0LAJ3 entry or part of it limits assumed): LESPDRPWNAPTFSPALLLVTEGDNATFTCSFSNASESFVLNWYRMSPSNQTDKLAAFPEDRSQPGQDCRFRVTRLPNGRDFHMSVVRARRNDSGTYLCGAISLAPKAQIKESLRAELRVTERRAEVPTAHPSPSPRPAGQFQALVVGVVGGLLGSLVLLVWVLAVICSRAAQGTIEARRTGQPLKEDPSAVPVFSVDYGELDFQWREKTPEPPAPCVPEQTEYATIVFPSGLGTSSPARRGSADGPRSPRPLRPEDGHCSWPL

Binder	EC50 [2] [nM]	EC50 [3] [nM]	Kd [4] [nM]	koff [4] [s⁻¹]	kon [4] [M⁻¹ s⁻¹]	Kd [5] [nM]	koff [5] [s⁻¹]	kon [5] [M⁻¹ s⁻¹]	further results
56H02 (antibody, V domains shown, used with CH1,2,3 and corresponding CL) VH: QVQLVQSGAEVKKPGASVKVSCKASGYTFTSYFMHWVRQAPGQGLEWMGLINPDGGNTDYAQKFQGRVTMTRDTSTSTVYMELSSLRSEDTAVYYCARDGNYYDSSGYYYPDAFDIWGQGTMVTVSS VL: SSELTQDPAVSVALGQTVRITCQGDSLRRFYASWYQQKPGQAPVIVIYGKDNRPSGTPDRFSGSTSGNTASLTITGAQAEDEADYYCNSRDSSGTHVVFGGGTKLTVL	0.0881	0.0921	0.262	3.67e-05	140000	0.228	3.79e-05	166000	–
20H02 (antibody, V domains shown, used with CH1,2,3 and corresponding CL) VH: EVLLVESGGGLVQPGGSLRLSCAASGFTFSSYSMNWVRQAPGKGLEWVSFISSSSPTLYYADSVKGRFTISRDNAKNSLYLQMNSLRDEDTAVYYCARQGLTPFDYWGQGTLVTVSS VL: EIVMTQSPATLSVFPGERATLSCRASQSVSSYLAWYQQKPGQAPRLLIYGASTRATGIPARVSGSGSGTEFILTISSLQSEDFAVYYCQQYNNWPYTFGQGTKLEIK	0.231	0.503	6.39	0.000463	72500	2.43	0.000221	90900	–
40B20 (antibody, V domains shown, used with CH1,2,3 and corresponding CL) VH: EVQLVESGGGLVQPGGSLRLSCAASGFTFSSYSMNWVRQAPGKGLQWVSYITSSSNTMYYADSVKGRFTISRDNAKNSLYLQMNSLRDEDTAVYYCASIVGAPFDYWGQGTLVTVSS VL: EIVMTQSPATLSVSPGERATLSCRASQSVSSSLAWYQQKPGQAPRLLIYGASTRATGIPARFSGSGSGTEFTLTISSLQSEDFAAYYCQQYNNWPFTFGPGTKVDIK	0.0958	0.162	7.51	0.000505	67300	9.61	0.000773	80500	–
z2-XVT458 (antibody, IgG1, V domains shown, full hIgG1; also called XVT458-z2; GH + T071V) VH: QVQLVQSGAEVKKPGASVKVSCKASGYTFTNFYIHWVRQAPGQGLEWMGSIYPNYGDTAYNQKFKDRVTMTVDTSTSTAYMELRSLRSDDTAVYYCARGYSYAMDYWGQGTTVTVSS VL: DIQMTQSPSSVSASVGDRVTITCSASQGISGDLNWYQQKPGKAPKLLIYHTSSLHSGVPSRFSGSGSGTDFTLTISSLQPEDFATYYCQYYSKDLLTFGGGTKLEIK	–	–	–	–	–	–	–	–	EC50 [6]: 0.71 nM; Max OD [6]: 2.91 OD; EC50 [7]: 0.4 nM; Max OD [7]: 3.32 OD; EC50 [8]: 4.15 nM; Top MFI [8]: 45500 MFI; EC50 [9]: 5.86 nM; Max MFI [9]: 40700 MFI; Kd [10]: 14 nM; koff [10]: 0.00127 s⁻¹; kon [10]: 90700 M⁻¹ s⁻¹; Kd [11]: 54.2 nM; koff [11]: 0.0031 s⁻¹; kon [11]: 57200 M⁻¹ s⁻¹; Kd [12]: 12.5 nM; koff [12]: 0.00124 s⁻¹; kon [12]: 99200 M⁻¹ s⁻¹; Max MFI [13]: 109 MFI; kon [14]: 73000 M⁻¹ s⁻¹
XVT458-z2-m6 (antibody, V domains shown, IgG format; also called z2_XVT458m6) VH: QVQLVQSGAEVKKPGASVKVSCKASGYTFTNFYIHWVRQAPGQGLEWMGSIYPNYGITAYNQKFKDRVTMTVDTSTSTAYMELRSLRSDDTAVYYCARGYSYAMDYWGQGTTVTVSS VL: DIQMTQSPSSVSASVGDRVTITCSASQGISGDLNWYQQKPGKAPKLLIYHTSQLHSDVPSRFSGSGSGTDFTLTISSLQPEDFATYYCQGYSKDLLTFGGGTKLEIK	–	–	–	–	–	–	–	–	EC50 [6]: 0.064 nM; Max OD [6]: 3.49 OD; EC50 [7]: 0.071 nM; Max OD [7]: 3.69 OD; EC50 [9]: 1.56 nM; Max MFI [9]: 39500 MFI; Kd [12]: 0.439 nM; koff [12]: 0.000101 s⁻¹; kon [12]: 231000 M⁻¹ s⁻¹; Max MFI [13]: 59 MFI; kon [14]: 213000 M⁻¹ s⁻¹
39F23 (antibody, V domains shown, used with CH1,2,3 and corresponding CL) VH: QVQLVESGGGVGQPGRSLRLSCAASGFTFSNYGMHWVRQAPGKGLEWVAVIWYDGSKKYYADSVKGRFTISRDNSKNTLYLQMNSLRVEDTAVYYCVGNSGHWGQGTLVTVSS VL: DIVMTQTPLSLPVTPGEPASISCRSSQSLLDSDDGNTYLDWYLQKPGQSPQLLIYTLSYRASGVPDRFSGSGSGTDFTLKISRVEAEDVGVYYCMQCIEFPHTFGGGTKVEIK	0.0289	0.0189	1.3	0.000294	227000	1.03	0.000253	244000	–

Now from value to binder, other results behind:

EC50 [2] [nM]	EC50 [3] [nM]	Kd [4] [nM]	koff [4] [s⁻¹]	kon [4] [M⁻¹ s⁻¹]	Kd [5] [nM]	koff [5] [s⁻¹]	kon [5] [M⁻¹ s⁻¹]	Binder	further results
0.195	0.243	1.24	8.25e-05	66700	0.00927	6.39e-07	69000	21A08 (antibody, V domains shown, used with CH1,2,3 and CL(lambda); also called clone 21A08) VH: EVQLLESGGGLVQPGGSLRLSCAASGFTFSINAMTWVRQAPGKGLEWVSTISGSGFSTYYADSLKGRFTISRDNSKNTLYLQMNSLRAEDTAVYYCAKEVYGDYWGQGTLVTVSS VL: not shown	Kd [1]: 2.17 nM; koff [1]: 0.00014 s⁻¹
0.107	0.2	8.45	0.000838	99200	1.41	0.000132	94000	22F13 (antibody, V domains shown, used with CH1,2,3 and corresponding CL) VH: EVQLLESGGGLVQPGGSLRLSCAASGFTFSISAMTWVRQAPGKGLEWVSTISGSGGSTYYSDSVKGRFTISRDNSKNTLYLQINSLRADDTAVYYCAKEVYGDYWGQGTLVTVSS VL: not shown	–
0.31	0.179	8.38	0.000783	93400	1.15	0.000101	87500	25I20 (antibody, V domains shown, used with CH1,2,3 and corresponding CL; also called 25120) VH: EVQLLESGGNLVQPGGSLRLSCAASGFTFSTYAMSWVRQAPGKGLEWVSTISGTGYSTYFADSVKGRFTISRDNSKNTLFLQMNSLRAEDTAVYYCAKEVYGDYWGQGTLVTVSS VL: not shown	–
